Data: patent US20050074845A1 (Sanofi, published 2005)

Biological target: T1, human GLUT4 (human, UniProt P14672 1-509, limits assumed)
T1 construct: The ubiquitin-half fusion partners and the limits of the construct are not described; also called Glut 4 transporter
T1 sequence (looked up): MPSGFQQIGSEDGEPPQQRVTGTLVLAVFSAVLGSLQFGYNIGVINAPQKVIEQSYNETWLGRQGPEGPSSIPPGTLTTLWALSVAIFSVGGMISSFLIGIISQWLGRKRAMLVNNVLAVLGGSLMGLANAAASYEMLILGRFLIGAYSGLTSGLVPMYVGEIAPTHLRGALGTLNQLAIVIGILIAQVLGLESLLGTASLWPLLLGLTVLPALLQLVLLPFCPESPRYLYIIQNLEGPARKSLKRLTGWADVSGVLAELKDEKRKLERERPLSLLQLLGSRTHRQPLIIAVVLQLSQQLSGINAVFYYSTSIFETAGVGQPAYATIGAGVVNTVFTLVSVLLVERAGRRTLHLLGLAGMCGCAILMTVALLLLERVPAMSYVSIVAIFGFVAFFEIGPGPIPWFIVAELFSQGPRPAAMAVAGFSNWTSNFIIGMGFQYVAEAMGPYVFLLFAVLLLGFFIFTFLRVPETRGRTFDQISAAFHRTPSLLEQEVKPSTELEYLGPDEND
Assay: split-ubiquitin protein interaction assay in yeast

B1: yeast Erg4 (enzyme)
chain: not shown
notes: The ubiquitin-half fusion partners and the limits of the construct are not described; also called Erg4 protein; sterol C-24(28)-reductase
- binding result: binds
